Measurements: patent US20210179715A1 (Genentech, published 2021)
“And” between values parts separate entries of the source, which are not always exact repeats. Identical values can stand only once. Like-named read-outs stand apart in the source and are kept apart here.

Legend:
LY6G6D on HT55 cells = target: T1, LY6G6D on HT55 cells (human, UniProt O95868 20-104); assay: cell-based or functional assay
T1 sequence: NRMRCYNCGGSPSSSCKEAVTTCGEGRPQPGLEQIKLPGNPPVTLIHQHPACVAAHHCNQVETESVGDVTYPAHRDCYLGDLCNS

human LY6G6D-Fc [1] = target: T2, human LY6G6D-Fc (human, UniProt O95868 20-104); assay: BIAcore SPR; two-cell TDB
T2 construct: also called hu Ly6G6D; huLY6G6D; not shown: linker and Fc part
T2 sequence: T1 sequence

[2] = target: T3, human extracellular domain (ECD) of CD3 (human, UniProt P07766 23-126); assay: BIAcore SPR; two-cell TDB
T3 construct: extracellular domain; also called huCD3
T3 sequence (P07766 23-126): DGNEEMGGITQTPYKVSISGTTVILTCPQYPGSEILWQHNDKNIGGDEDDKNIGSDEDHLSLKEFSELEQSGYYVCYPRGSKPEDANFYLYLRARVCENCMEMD

[3] = target: T4, cyno extracellular domain (ECD) of CD3 (cynomolgus monkey, UniProt Q95LI5 22-117); assay: BIAcore SPR; two-cell TDB
T4 construct: extracellular domain; also called CyCD3
T4 sequence (looked up): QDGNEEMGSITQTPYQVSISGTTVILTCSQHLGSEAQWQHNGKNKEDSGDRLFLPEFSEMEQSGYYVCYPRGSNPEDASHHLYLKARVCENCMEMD

human LY6G6D-Fc [4] = target: T2, human LY6G6D-Fc; assay: BIAcore SPR; LY6G6D-Fc on chip; TDB flowed; 37 C
Protocol: The humanized rb.20A12 variant 20A12.QNTv12, the humanized rb.6E10 variant 6E10.v114, and the anti-LY6G6D 1G4 arm were paired with the anti-CD3 38E4v1 or 40G5c arm as TDBs and tested for affinity to human and cynomolgus LY6G6D in a BIAcore® assay. Rabbit 20Al2, rabbit 6E10, and humanized 20A12.QNTv12 and 20A12.SNVv12 were additionally assayed for binding as antigen-binding fragments (Fabs). LY6G6D-Fc was directly immobilized on a chip, and TDBs were flowed through at 37° C., except for the rb6E10 Fab, which was assayed at 25° C.

human LY6G6D-Fc [5] = target: T2, human LY6G6D-Fc; assay: BIAcore SPR; LY6G6D-Fc on chip; TDB flowed; 37 C; remark: listed apart in the source
Protocol: TDBs comprising the anti-LY6G6D arm 20Al2.QNTv12 and the anti-CD3 38E4.v1 (left panel; produced using a two-cell-manufacturing system), 38E4.v1 MD1 (center panel; produced using a one-cell-manufacturing system), or 38E4.v1 MD4 arm (right panel; produced using a one-cell-manufacturing system) were assayed for affinity for a human Ly6G6D polypeptide (FIG. 25) using a BIAcore assay.

[6] = target: T5, 27mer human CD3 polypeptide conjugated to biotin (human, conjugated to biotin (site not stated)); assay: BIAcore T200 SPR; biotin 27mer CD3 peptide on SA chip; TDB flowed; 37 C
T5 construct: The assay text says only '27mer human CD3 polypeptide'; also called HuCD3e pept biotin
T5 peptide: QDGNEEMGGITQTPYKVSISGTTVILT
Protocol: The MD1 and MD4 variants thus retained the high affinity of 38E4v1. Assays were performed using a BIAcore T200: 27mer human and cyno CD3 polypeptides were conjugated to biotin and were immobilized on a SA CM5 chip, and TDBs were flowed through at 100 μl/min at 37° C.

[7] = target: T5, 27mer human CD3 polypeptide conjugated …; assay: as above
Protocol: Assays were performed using a BIAcore T200. 27mer human and cyno CD3 polypeptides were conjugated to biotin and were immobilized on a SA CM5 chip. LY6G6D TDBs were flowed through at 37° C.

- average CD8+T cell activation EC50 (LY6G6D on HT55 cells): ~87 ng/ml and ~583 pM
- Kd (human LY6G6D-Fc [1]): 2.02 nM
- Kd [2]: 20 nM
- Kd [3]: 15 nM
- Kd (human LY6G6D-Fc [4]): 2.02 nM
- koff (human LY6G6D-Fc [4]): 0.000444 s⁻¹
- kon (human LY6G6D-Fc [4]): 220000 M⁻¹ s⁻¹
- Kd (human LY6G6D-Fc [5]): 1.39 nM
- koff (human LY6G6D-Fc [5]): 0.000416 s⁻¹
- kon (human LY6G6D-Fc [5]): 299000 M⁻¹ s⁻¹
- Kd [6]: 17.6 nM and 21.9 nM
- koff [6]: 0.0429 s⁻¹ and 0.0486 s⁻¹
- kon [6]: 2.44e+06 M⁻¹ s⁻¹ and 2.22e+06 M⁻¹ s⁻¹
- Kd [7]: 19.8 nM
B1: LY6G6D TDB comprising the anti-LY6G6D 20A12.QNTv12 arm (two-cell) and the anti-CD3 38E4v1 arm (bispecific antibody, V domains shown)
VH 1: EVQLLESGGGLVQPGGSLRLSCAASGFDFVNNAMIWVRQAPGKGLEWVSALSFADNTAYYATWASGRFTISRDSSKTTVYLQMNSLRAEDTAVYYCMRGDLWGPGTLVTVSS
VL 1: DIQMTQSPSTLSASVGDRVTITCQASESITRYLNWYQQKPGKAPKLLIYDASKLPSGVPSRFSGSGSGTEFTLTISSLQPDDFATYYCQSTSFRGRSYQNTFGGGTKVEIK
VH 2: EVQLVQSGAEVKKPGASVKVSCKASGFTFTSYYIHWVRQAPGQGLEWIGWIYPENDNTKYNEKFKDRVTITADTSTSTAYLELSSLRSEDTAVYYCARDGYSRYYFDYWGQGTLVTVSS
VL 2: DIVMTQSPDSLAVSLGERATINCKSSQSLLNSRTRKNYLAWYQQKPGQSPKLLIYWTSTRKSGVPDRFSGSGSGTDFTLTISSLQAEDVAVYYCKQSFILRTFGQGTKVEIK
notes: Full-length IgG1 kappa; also called hu20A12.QNTv12/38E4v1 TDB; 20A12.QNTv12/38E4v1
- average cell killing EC50 (LY6G6D on HT55 cells): ~1.04 ng/ml and ~7 pM
